± gives the uncertainty stated by the source.
Test: self-splicing fitness, log relative to wild type (ln ratio); higher = more splicing; Tetrahymena group I intron in knt gene, E. coli kanamycin selection, DiMSum; sequences stand for … in CUCUCU…GGAGGGAAAAGUUAUCAGGCAUGCACCUGGUAGCUAGUCUUUAAACCAAUAGAUUGCAUCGGUUUAAAAGGCAAGACCGUCAAAUUGCGGGAAAGGGGUCAACAGCCGUUCAGUACCAAGUCUCAGGGGAAACUUUGAGAUGGCCUUGCAAAGGGUAUGGUAAUAAGCUGACGGACAUGGUCCUAACCACGCAGCCAAGUCCUAAGUCAACAGAUCUUCUGUUGAUAUGGAUGCAGUUCACAGACUAAAUGUCGGUCGGGGAAGAUGUAUUCUUCUCAUAAGAUAUAGUCGGACCUCUCCUUAAUGGGAGCUAGCGGAUGAAGUGAUGCAACACUGGAGCCGCUGGGAACUAAUUUGUAUGCGAAAGUAUAUUGAUUAGUUUUGGAGUACUCGUGGUCG
Outline: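 Colonies from six replicate transformations of E. coli BL21(DE3) were pooled and amplicon-sequenced on an Illumina HiSeq 2500. The library placed an intron with all eight P1ex-region nucleotides randomised inside the knt kanamycin-resistance gene on pET-22b(+), and cells grew overnight at 37°C or 30°C on LB agar with or without 25 μg/mL kanamycin (plus 100 μg/mL carbenicillin, 50 μM IPTG, 0.2% rhamnose). Fitness is the DiMSum error-weighted combination of wild-type-normalised replicate fold changes, kanamycin versus none.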

Row | Sequence | self-splicing fitness (ln) (30 °C) | self-splicing fitness (ln) (37 °C)
1 | ACACAGCAAUAUUACGACUA | -1.22 ± 0.091 | -0.346 ± 0.084
2 | ACACAGCAAUAUUACGAGAC | -3.25 ± 0.14 | -2.54 ± 0.17
3 | ACACAGCAAUAUUACGAUAU | -1.63 ± 0.08 | -1.62 ± 0.098
4 | ACACAGCAAUAUUACGCACA | -1.16 ± 0.1 | -0.111 ± 0.1
5 | ACACAGCAAUAUUACGCGUU | -4.3 ± 0.16 | -2.29 ± 0.14
6 | ACACAGCAAUAUUACGCUAG | -1.41 ± 0.075 | -1.06 ± 0.092
7 | ACACAGCAAUAUUACGCUUA | -1.75 ± 0.098 | -1.7 ± 0.075
8 | ACACAGCAAUAUUACGGAUG | -1.54 ± 0.058 | -0.668 ± 0.084
9 | ACACAGCAAUAUUACGGGCG | -0.978 ± 0.048 | -0.369 ± 0.062
10 | ACACAGCAAUAUUACGGUGU | -5.22 ± 0.26 | -2.92 ± 0.21
11 | ACACAGCAAUAUUACGGUUA | -1.16 ± 0.059 | -0.485 ± 0.061
12 | ACACAGCAAUAUUACGUAAA | -3.49 ± 0.15 | -1.2 ± 0.12
13 | ACACAGCAAUAUUACGUGGC | -3.54 ± 0.23 | -0.291 ± 0.13
14 | ACACAGCAAUAUUACGUUAU | -3.35 ± 0.11 | -2.65 ± 0.12
15 | ACACAGCAAUAUUACGUUCA | -1.96 ± 0.066 | -0.442 ± 0.064
16 | ACACAGCAAUAUUACGUUUC | -3.61 ± 0.12 | -2.28 ± 0.14
17 | ACACAGCAAUAUUACGUUUU | -3.42 ± 0.11 | -2.57 ± 0.14
18 | ACAGAGCAAUAUUACGAACA | -2.01 ± 0.26 | -2.67 ± 0.41
19 | ACAGAGCAAUAUUACGACAA | – | -2.31 ± 0.21
20 | ACAGAGCAAUAUUACGACCU | -2.8 ± 0.19 | -0.728 ± 0.16
21 | ACAGAGCAAUAUUACGACGA | -0.906 ± 0.43 | -1.83 ± 0.38
22 | ACAGAGCAAUAUUACGAGGC | -3.42 ± 0.38 | -2.15 ± 0.25
23 | ACAGAGCAAUAUUACGAGUC | -4.65 ± 0.38 | -1.82 ± 0.27
24 | ACAGAGCAAUAUUACGAGUG | -4.35 ± 0.37 | -3.43 ± 0.29

From the supplement of paper PMC7877785
